Tests used:
Test in all cases: cell-based or functional assay
[1] = molecular target: murine glutamine synthetase N-terminal mutant W60A N61A D63R S66A (mutGS-NT4) (murine) (UniProt P15105)
[2] = molecular target: murine glutamine synthetase N-terminal mutant W60A N61A D63A (mutGS-NT1) (murine) (UniProt P15105)
[3] = molecular target: murine glutamine synthetase N-terminal mutant W60A N61A D63A S66A D76A (mutGS-NT3) (murine) (UniProt P15105)
[4] = molecular target: murine glutamine synthetase N-terminal mutant W60A N61A D63A S66A (mutGS-NT2) (murine) (UniProt P15105)

Measured: recovery of viability of CHO-K1 GS knockout pools in glutamine-free medium

murine glutamine synthetase C-terminal mutant E134A E136A E196A E203A (mutGS-CT1) (from UniProt P15105 1-373)
90 % viability: [1] | [2] | [3] | [4]

murine glutamine synthetase C-terminal mutant N248A H253A N255A (mutGS-CT2) (from UniProt P15105 1-373)
90 % viability: [1] | [2] | [3] | [4]

Source: patent publication US20190127452A1
